Measurements as given in patent US20190083662A1 (CENTRE FOR PROBE DEVELOPMENT AND COMMERCIALIZATION, published 2019).

What follows are binders tested against T1, insulin-like growth factor-1 receptor (IGF-1R) (human, UniProt P08069 31-1367) (assay: saturation radioligand binding on A431 cells, 4 C, specific binding fitted to a single-site hyperbola).
T1 construct: whole, on cells; Endogenous receptor on A431 cells ('IGF-1R expressing A431 cell line'); also called IGF-1 receptor
Description: Nonspecific binding is typically assessed by measuring radioconjugate binding in the presence of a fixed concentration of HumIGF-1R that binds to essentially all the receptors. Since all the receptors are occupied by the HumIGF-1R, the radioconjugate only binds nonspecifically. Kd and Bₘₐₓ values are calculated by nonlinear regression analysis and computerized curve fitting.
The purpose of this assay was to ensure that these new radioconjugates maintained binding characteristics consistent with the native antibody in an IGF-1R expressing A431 cell line. Twenty-four hours prior to the start of the experiment, 1.5×10⁵ A431 cells were seeded in 48-well microplates in 500 μl supplemented medium. The radioconjugate was diluted with binding buffer (PBS+0.5% BSA) to a range of concentrations from 0.08 nM to 40 nM; final assay concentration 0.04 to 20 nM. At the start of the assay, the media is aspirated, discarded and 500 μI of serum-free DMEM was added to each well. The plates were incubated at 37° C. for 1 hour. Following incubation, media was aspirated from each well and discarded. The cells were washed and 100 μI of binding buffer (total binding) or 4 μM cold-antibody (non-specific binding) added to designated wells. Plates were incubated at 4° C. for 1 hour with mild shaking. […] The lysates were transferred to counting tubes and run with radioconjugate standards on the Wizard 1470 gamma counter to determine the radioactivity content (in counts per minute (CPM)) for each lysate. The remaining lysate from each well (25 μI) was transferred to a 96-well plate, and the protein content of each lysate determined using a standard protein quantification assay. Total, non-specific and specific ligand binding determinations, mass of bound conjugate in each lysate were calculated by converting lysate CPM to fmol bound using the specific activity of the conjugate standards and then normalizing the fmol bound to the protein content of each lysate(in milligrams). Specific binding was determined by subtracting the non-specific binding from total binding.

T1 sequence (P08069 31-1367): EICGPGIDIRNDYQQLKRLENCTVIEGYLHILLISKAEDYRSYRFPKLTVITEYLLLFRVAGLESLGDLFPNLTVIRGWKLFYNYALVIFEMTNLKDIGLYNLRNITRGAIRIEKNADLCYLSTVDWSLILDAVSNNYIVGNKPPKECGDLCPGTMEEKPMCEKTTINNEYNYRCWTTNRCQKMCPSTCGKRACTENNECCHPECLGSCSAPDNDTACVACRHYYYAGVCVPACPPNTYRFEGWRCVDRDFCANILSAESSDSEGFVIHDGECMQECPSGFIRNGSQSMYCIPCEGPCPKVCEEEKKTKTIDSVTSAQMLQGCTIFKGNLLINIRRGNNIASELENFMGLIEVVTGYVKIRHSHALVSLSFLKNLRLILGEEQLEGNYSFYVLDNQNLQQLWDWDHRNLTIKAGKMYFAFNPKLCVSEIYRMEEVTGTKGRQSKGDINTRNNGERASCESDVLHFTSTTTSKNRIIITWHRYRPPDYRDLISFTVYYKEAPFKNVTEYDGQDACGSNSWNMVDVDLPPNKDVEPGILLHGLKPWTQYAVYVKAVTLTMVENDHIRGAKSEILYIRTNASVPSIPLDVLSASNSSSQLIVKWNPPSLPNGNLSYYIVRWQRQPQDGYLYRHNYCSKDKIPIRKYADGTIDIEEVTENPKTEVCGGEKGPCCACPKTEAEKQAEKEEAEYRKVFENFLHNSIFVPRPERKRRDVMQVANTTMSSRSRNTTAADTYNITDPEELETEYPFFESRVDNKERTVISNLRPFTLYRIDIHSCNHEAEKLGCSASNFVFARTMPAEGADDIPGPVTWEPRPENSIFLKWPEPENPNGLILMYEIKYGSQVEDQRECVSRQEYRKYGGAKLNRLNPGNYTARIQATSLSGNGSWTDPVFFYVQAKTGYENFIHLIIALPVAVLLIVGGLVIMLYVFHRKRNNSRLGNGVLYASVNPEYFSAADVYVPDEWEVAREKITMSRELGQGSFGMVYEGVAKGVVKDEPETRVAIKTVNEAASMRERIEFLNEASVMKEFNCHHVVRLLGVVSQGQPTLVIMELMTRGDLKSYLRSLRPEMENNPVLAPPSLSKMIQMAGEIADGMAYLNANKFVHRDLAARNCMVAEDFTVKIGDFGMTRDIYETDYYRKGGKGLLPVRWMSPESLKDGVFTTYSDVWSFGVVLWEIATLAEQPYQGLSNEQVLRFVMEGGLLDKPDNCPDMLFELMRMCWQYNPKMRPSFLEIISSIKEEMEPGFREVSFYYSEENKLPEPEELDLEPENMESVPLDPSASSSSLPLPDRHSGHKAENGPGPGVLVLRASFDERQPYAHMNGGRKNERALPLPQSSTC

| Binder | Kd |
| --- | --- |
| [^177Lu]-Compound A-HuMIGF-1R (antibody, V domains shown, Whole antibody HuMIGF-1R (AVE1642, humanized EM164; MALDI m/z about 149835) conjugated with the chelate Compound A (DOTA-GA anhydride) and loaded with 177Lu; also called 177Lu-DOTA-GA-AVE1642; (Compound A)-HuMIGF-1R radiolabelled with Lu-177) VH: QVQLVQSGAEVVKPGASVKLSCKASGYTFTSYWMHWVKQRPGQGLEWIGEINPSNGRTNYNQKFQGKATLTVDKSSSTAYMQLSSLTSEDSAVYYFARGRPDYYGSSKWYFDVWGQGTTVTVSSASTKGPSVFPLAPSSKSTSGGTAALG VL: DVVMTQTPLSLPVSLGDPASISCRSSQSIVHSNVNTYLEWYLQKPGQSPRLLIYKVSNRFSGVPDRFSGSGAGTDFTLRISRVEAEDLGIYYCFQGSHVPPTFGGGTKLEIKRTVAAPSVFIFPPSDEQLKSGTASVVCLLNNFYPREAK | 2.9 nM |
| [^177Lu]-Compound C-HuMIGF-1R (antibody, V domains shown, Whole antibody HuMIGF-1R (AVE1642) conjugated with the chelate Compound C (DOTA-GA with a PEG3 linker, TFP ester) and loaded with 177Lu; also called Compound C-HuMIGF-1R radiolabelled with Lu-177) VH: QVQLVQSGAEVVKPGASVKLSCKASGYTFTSYWMHWVKQRPGQGLEWIGEINPSNGRTNYNQKFQGKATLTVDKSSSTAYMQLSSLTSEDSAVYYFARGRPDYYGSSKWYFDVWGQGTTVTVSSASTKGPSVFPLAPSSKSTSGGTAALG VL: DVVMTQTPLSLPVSLGDPASISCRSSQSIVHSNVNTYLEWYLQKPGQSPRLLIYKVSNRFSGVPDRFSGSGAGTDFTLRISRVEAEDLGIYYCFQGSHVPPTFGGGTKLEIKRTVAAPSVFIFPPSDEQLKSGTASVVCLLNNFYPREAK | 2.2 nM |
| [^177Lu]-Compound B-HuMIGF-1R (antibody, V domains shown, Whole antibody HuMIGF-1R (AVE1642) conjugated with the chelate Compound B (DOTA-GA with an 11-aminoundecanoyl linker, TFP ester) and loaded with 177Lu; also called Compound B-HuMIGF-1R radiolabelled with Lu-177) VH: QVQLVQSGAEVVKPGASVKLSCKASGYTFTSYWMHWVKQRPGQGLEWIGEINPSNGRTNYNQKFQGKATLTVDKSSSTAYMQLSSLTSEDSAVYYFARGRPDYYGSSKWYFDVWGQGTTVTVSSASTKGPSVFPLAPSSKSTSGGTAALG VL: DVVMTQTPLSLPVSLGDPASISCRSSQSIVHSNVNTYLEWYLQKPGQSPRLLIYKVSNRFSGVPDRFSGSGAGTDFTLRISRVEAEDLGIYYCFQGSHVPPTFGGGTKLEIKRTVAAPSVFIFPPSDEQLKSGTASVVCLLNNFYPREAK | 2 nM |
